First the molecules themselves.
T1: FLAG-hCD30L-EC (N153Q) treated with PNGaseF (human)
T1 construct: also called FLAG-hCD30L-EC + PNGaseF
T1 chain: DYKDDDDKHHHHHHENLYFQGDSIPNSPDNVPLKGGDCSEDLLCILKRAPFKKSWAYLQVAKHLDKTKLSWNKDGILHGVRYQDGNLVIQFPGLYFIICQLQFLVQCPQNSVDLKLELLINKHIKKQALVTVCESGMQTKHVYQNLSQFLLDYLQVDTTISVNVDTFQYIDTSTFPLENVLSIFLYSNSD

T2: recombinant human CD30L isoleucine zipper (huCD30L LZ) (human, UniProt P32971 63-234)
T2 construct: also called huCD38L LZ; CD30L LZ Hu; not shown: N-terminal isoleucine zipper motif (leucine zipper with leucines replaced by isoleucines)
T2 sequence: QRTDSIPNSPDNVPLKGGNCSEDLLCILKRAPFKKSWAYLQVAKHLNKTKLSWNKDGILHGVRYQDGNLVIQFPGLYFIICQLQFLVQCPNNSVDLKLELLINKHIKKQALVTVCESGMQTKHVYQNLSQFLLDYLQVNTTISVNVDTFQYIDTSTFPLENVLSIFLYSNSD

B1: Antibody E (antibody, V domains shown)
VH: QVQLQESGPRLVKPSETLSLTCTVSGGSITNNYWSWIRQPAGKGLEWIGRVYSSGLTNYKPSLKSRVTMSVDTSKNQFSLRLNSVTAADTAVYYCARERATVTTRYHYDGMDVWGQGTSVTVSS
VL: QSALTQPASVSGSPGQSITISCTGSSSDIGTYNYVSWYQQYPGKAPELMIYEVNNRPSGVSDRFSGSTSGNTASLTISGLQANDEADYYCSSYSSSSTWVFGGGTKLTVL
notes: also called mAb E
B2: Antibody D (antibody, V domains shown)
VH: QVQLQESGPGLVKPSETLSLTCTVSGGSISSYSWSWIRQPAGKGLEWIGRTSTSGRNNYNPSLKSRVTMSVDTSKNQFSLKLNSVTAADTAVYYCARDFTIAARRYYYYGMDVWGQGTTVTVSS
VL: QSALTQPASVSGSPGQSITISCTGTSSDIGLYNYVSWYQQHPGKAPKLIIYEVINRPSGVSNRFSGSESGNTASLTISGLQAEDEANYYCSSYTSSSTWVFGGGTKLTVL
notes: also called mAb D
B3: Antibody F (antibody, V domains shown)
VH: QVQLQESGPGLVKPSETLSLTCTVSGGSISSYYWSWIRQPAGKGLEWIGRIFASGSTNYNPSLRSRVTMSRDTSKNQFSLKLSSVTAADTAVYYCAKERVGVQDYYHYSGMDVWGQGTTVTVSS
VL: B2 VL with I29V, H41Q, I49M, I54S, N55K, E68T, E83D, N87D, Y89S
notes: also called mAb F
B4: Antibody A (antibody, V domains shown)
VH: QVQLQESGPGLVKPSETLSLTCTVSGGSISSYIWSWIRQPAGKGLEWIGRIYASGNTNYNPSLKSRVTMSVDTSKNQFSLKLSSMTAADTAVYYCARDYRVAGTYYYYYGLDVWGQGTTVTVSS
VL: B2 VL with I29V, L31V, N33D, I49M, I54S, E68K, A82T, N87D, S96R
notes: Human antibody (XenoMouse); also called mAb A; anti-hCD30L A
B5: Antibody B (antibody, V domains shown)
VH: QVQLQESGPGLVKPSETLSLTCTVSGGSISSYYWTWIRQPAGKGLEWIGRIYTSGITNYNPSLKSRVTMSVDTSKNQFSLKLSSVTAADTAVYYCARERVVGASRYYYYGVDVWGQGTTVTVSS
VL: B2 VL with I29V, G43D, I49M, Y51F, I54N, E68N, N87D
notes: also called mAb B
B6: Antibody C (antibody, V domains shown)
VH: B5 VH
VL: B2 VL with N33D, G43D, K44R, Y51F, I54N, N62Y, E68N, N87D
notes: also called mAb C

Substitutions are numbered along the chain they refer to.

In general, IC50 refers to the midpoint of a concentration-inhibition curve.

One assay has as its target T1, FLAG-hCD30L-EC (N153Q) treated with …. The assay can be described thus: HX-MS, 6 uM hCD30L with 6.6 uM mAb.
Consider B1, for which the binding result is listed as “binds”.

Take B2: the binding result is recorded as “binds”.

B3: the binding result is recorded as “binds”.

The target of another assay is T2, recombinant human CD30L isoleucine …. The assay can be described thus: blocking of human CD30L LZ binding to K299 cells (CD30).
As to B1, the IC50 came to 2.1 nM.

In the case of B4, the IC50 came out at 1.5 nM.

For the molecule B5, the half-inhibitory concentration (IC50) turned out to be 2.5 nM.

For B3, the IC50 stood at 2 nM.

With B6, the half-maximal inhibitory concentration (IC50) is 1.9 nM.

The values above are taken from patent publication US20220112295A1 (Novo Nordisk, published 2022).
